{
  "source": "the nanobody polyreactivity screen of Harvey et al. (2022)",
  "data": [
    {"assay": "yeast display, Sf9 membrane polyspecificity reagent, FACS + sequencing; frameworks hold sequencing errors", "summary_of_the_method": "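Galactose induction of a Saccharomyces cerevisiae BJ5465 synthetic nanobody display library ran 36–48 hours. The cells were then stained for 1 hour at 4 °C with 10% biotinylated, detergent-solubilized Sf9 membrane reagent, pulled down on streptavidin microbeads and FACS-sorted into low and high (top ~1%) gates on expression and reagent-binding fluorescence. Labels for polyreactivity follow the gate of origin.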", "values": [
      {"sequence": "QLLLQESGRGLVQAGVSLRLSCAASGSIFLVYTIGCYRKAPLKEREFVAGIPLGTTTYNADSVKGRFTISRDNVKNTVYLQINSLKPEDTSVYYCAVAVGHYTDIWDWGQGTQVTMSS", "polyreactivity (PSR sort gate)": "high polyreactivity"},
      {"sequence": "QLLLVESGGGLVQAGGSLRLSCATSGIILRYYAMGWYRQAPGKERELVAAISGSGTRTYYADSVKGRFTISRDNAKNTVYLQMNSLKPEDTAVYYCAAAHPATRYDYWGQGTQVTVSS", "polyreactivity (PSR sort gate)": "high polyreactivity"},
      {"sequence": "QLQHEESRGGLVQAGGSLRLSCAASGFIFPAYVMGWYRQAPGKERELVSAIDWSGDNTYYADSVKGRFTISRDNAKNTVYLQMNSLTPEDTAVYYCAKDNDYPTEWLSDYYYWGQGTQVTVSS", "polyreactivity (PSR sort gate)": "low polyreactivity"},
      {"sequence": "QLQHVESGGGLVQAGGSLRLSCDASGYTFAWYAMGWYIQAPGKESELVAAISVSGGSTYYADSVKGRFTISRDNAKNTVYIQMNSLKPEDTAVYYCAARRYLGYSASYDYWGQGTQVTVSS", "polyreactivity (PSR sort gate)": "high polyreactivity"},
      {"sequence": "QLQHVESGGGLVQAGGSLRLTCAASGRTFGYYAMGWYRQAPGKERELVAAITSGGRTYYADSVKGRFTISRDNAKNTVYLQMNSLKPEDTAVYYCNAPPRWCSRVAWYEYWGQGTQVTVSS", "polyreactivity (PSR sort gate)": "high polyreactivity"},
      {"sequence": "QLQLEDSGGGLVQAGGILRLSFAASGFTFFYNAMRWYSQAPATEREFDAAISGRGGTTYYADSVKGRFTISRDNAKNTVYLQMNSVKPEDTAVYYCAARSVSTLRYTSGKLRYDYWGQGTQVTVSS", "polyreactivity (PSR sort gate)": "high polyreactivity"},
      {"sequence": "QLQLEDSGGGLVQAGGSLRISCAASARIVGGNTMGWYRQAPGKERELVAAITYRGGSTYYADSVKGRFTISRDNAKYTVYLQINSLKPVATAVYYCATAGYWGGDYWGQGTQVTVSS", "polyreactivity (PSR sort gate)": "low polyreactivity"},
      {"sequence": "QLQLEESAGGLVQAGGSLRLSCAASGLTFPSYVMGRYRPAPGKEREFVAASTGSAGSTYYADSVKGRLTISRDNAKNTVYLQMISLKPEDSAVYYCAARVRYVNPKYYYWGHGTQVTVSS", "polyreactivity (PSR sort gate)": "high polyreactivity"},
      {"sequence": "QLQLEESGGGLVQAGGSLRLSFAASGLTFGRNAMGWYRQATGKVREFVAAISKSGTSTYYADSVKGRFTISRDNAKNTVYLQMISLKPEDTAVYDCARTNYAKRWDFDYWGQGTQVTVSS", "polyreactivity (PSR sort gate)": "low polyreactivity"},
      {"sequence": "QLQLGESGGGLVQAGGSLRLSCAASGRTFKDYAMGWYREAPGKERELVAAISWSGGDTYYADSVKGRFTISRDNAKNTVYLQMNSLKPEDTAVYYCNADPSGVFFYSLEFEYWGQGTQVTVSS", "polyreactivity (PSR sort gate)": "low polyreactivity"},
      {"sequence": "QLQLHESGGGLVQAGGSLRLSCAASGTISYAGPMGWYRQAPGKEREFVAGIGVGSNTNYADSVKGRYTIIRDNAKNTVYLQMNSLKPEDTAVYYCAVGGYAPLGRPYWGQGTQVTVSS", "polyreactivity (PSR sort gate)": "low polyreactivity"},
      {"sequence": "QLQLLESGGGLDQPGGSLRLSSAASGRTFYRYVMGWYRQEPGKERELVAAIRSSGTTTYYADSVKGRFTISRDNAKNTVYIKMNCVIPEDTAVYYCARDSYRGYVYSLDYWGQGTQVTVSS", "polyreactivity (PSR sort gate)": "high polyreactivity"},
      {"sequence": "QLQLQESGGGLVQAGGSLRLSCAASGSISRMDYMAWYRQASGKERELVAAIDNGSTTYYADSVKGRLTISRDNAKYTVYLQMNSLKPEDSAVYFCAAVRGRGGTHAYWGQGTQVTVSG", "polyreactivity (PSR sort gate)": "low polyreactivity"},
      {"sequence": "QLQLQESIGGLVQAGGSLRMSCAASGTIFHFHIMGWYRQAPGKEREFVAAISYGTSTYYADSVKGRFTISRDNAKNTVYLHMNSQKPEDTAVYYCAVYDYLEVYCWYWGQGTQVTLSS", "polyreactivity (PSR sort gate)": "low polyreactivity"},
      {"sequence": "QLQLVDSGGGLVQAGGSLRLSCAASGLIFPAYTMGWYRQAPGKQRELVAAISRSGGSTYYADSVKGRFTISRDNAKNTVYLQMNSLKTEDTAVYYCAAFYSGGYDYWGQGTQVTVSS", "polyreactivity (PSR sort gate)": "high polyreactivity"},
      {"sequence": "QLQLVESGAGLVQAGGSLRLICAASGSIFKSYAMGWYRQAPGKQMEFVAAISWSGGSTYADSVKGRFTISRDNAKNTVYLQMNSLKPEDTAVYYCNKDDYWFLGFYYWGQGTQVTVSS", "polyreactivity (PSR sort gate)": "low polyreactivity"},
      {"sequence": "QLQLVESGGALVQAGGSLRLSCAASGSTFTVNGMGWYRQAPGKERELVAAIDGGDGSTYYADSVKGRFTISRDNAKNTVYLQMNSLKPEDTAVYYCAADPPGFTQYGYWGQGTKVTVSS", "polyreactivity (PSR sort gate)": "low polyreactivity"},
      {"sequence": "QLQLVESGGGIVQAGGSLRLSCAPSGRIFFPNAMGSYRQAPGTERELVAGISIGGSTNYADSVKGRFTISRDNAKNTVYLQMNSLKPEDTAVYYWAARSPFGRWRDYWGQGTQVTVSS", "polyreactivity (PSR sort gate)": "low polyreactivity"},
      {"sequence": "QLQLVESGGGLDQAGGSLRLSCAASRYTMGWYRQAPGKEMELVPAITGGGSTNYADSVKGRFTISRDNAKNTVYLHMNSLKPEDTAVYYCAVDYAVSYAGWVLRYDYWGQGTQVTVSS", "polyreactivity (PSR sort gate)": "low polyreactivity"},
      {"sequence": "QLQLVESGGGLVQAGGRLRLSCAASGLTFQYNAMGWYRQAPGKERELVASINSGGSTDYADSVKGRFTISRDNAKNTVYLQMNRLKQEDTAVYYCASSGYWYSASYGYEYWGQGTQVTVSS", "polyreactivity (PSR sort gate)": "low polyreactivity"},
      {"sequence": "QLQLVESGGGLVQAGGRLRLSCASSGSTFHSYVMGWYRPAPGKERELVAAITSRGGSTNYADSVKGRFTISRENAKNTVYLHMNSLKPEDTAVYYCAADGYWGWSYFRYDYLGQGTQVTVSS", "polyreactivity (PSR sort gate)": "low polyreactivity"},
      {"sequence": "QLQLVESGGGLVQAGGRLRLSSAASGRTFRYYAMGWYRQAAGKERELVASITSGGRTYYADSVKGRFTISRDNAKNTVYLQMNSLKPEDTAVYYCAADRFGIGGKRGNDYWGQGTQVTVSS", "polyreactivity (PSR sort gate)": "high polyreactivity"},
      {"sequence": "QLQLVESGGGLVQAGGSLRISCAASGSTFGRNAMGWYRQAPGKERELVAVISKSGGSTYYADSVKGRFTISRDNAKNTVYLQMNSLKPEDTAVYYCAARYYSYWREYQHFDYWGQGTQVTVSS", "polyreactivity (PSR sort gate)": "high polyreactivity"},
      {"sequence": "QLQLVESGGGLVQAGGSLRLSCAASGFIDAYTMGWYRQAPGKERELVAAITWSGGRTYYADSVKGRFTISRDNAKNTVYIQRNSLKPEDNAVYYCAKDVTPYSPDEDYWGQGSQVTVSS", "polyreactivity (PSR sort gate)": "low polyreactivity"},
      {"sequence": "QLQLVESGGGLVQAGGSLRLSCAASGFTFRWYVMGWYRQAPCKQRELVASIRSGGSTYYADSVKGRFTISRDNAKNTVYLQMNSLKPEDTAVYYCAARFGRDRYYYWGQGTQVTVSS", "polyreactivity (PSR sort gate)": "high polyreactivity"},
      {"sequence": "QLQLVESGGGLVQAGGSLRLSCAASGFTFYAYAMGWYRQAPGKERELVAAINSGGGSRTYYADSVKGRFTISRDNAKNTVYLQMNCLKPEDTAVYYCAARVYGVDGYGYWGQGTEVTVSS", "polyreactivity (PSR sort gate)": "high polyreactivity"},
      {"sequence": "QLQLVESGGGLVQAGGSLRLSCAASGGTFYSYEMGWYRQATVKEREFVAAITYGGGSTYYADSVKGRFTMSRDNAKNTDYLQMNSLKPEDTAVYYCYARRYGSRLGERYYYWGQGTQVTVSS", "polyreactivity (PSR sort gate)": "high polyreactivity"},
      {"sequence": "QLQLVESGGGLVQAGGSLRLSCAASGITFVHNAMGWYRQAPGKEREFVAAITSSGVSTYYADSVKVRFTISRDNAKNTVYLQMNSLKPEDTAVYYCAARLSTRHWFYYWGQGTQVTVSS", "polyreactivity (PSR sort gate)": "high polyreactivity"},
      {"sequence": "QLQLVESGGGLVQAGGSLRLSCAASGLIFYDNMAWSRPAPAKEMELVAAISSSGGSTSYADSVKGRFSISRDNAKNTVYLQLISLKPEDTAVYYCAADSYPAYLGFVGFDYWGQGTQVTVSS", "polyreactivity (PSR sort gate)": "low polyreactivity"},
      {"sequence": "QLQLVESGGGLVQAGGSLRLSCAASGLTFVDYAMGWYRQAPGKERELVAAITSSGGSITYYADSVKGRFTISRDNAKNTVYLQLNSLKPEDTAVYYCNADYGIYTDSFRGPDYESWGQGTQVTVSS", "polyreactivity (PSR sort gate)": "low polyreactivity"},
      {"sequence": "QLQLVESGGGLVQAGGSLRLSCAASGRIFKEYAMGWYRQAPGQERELVAAISWRGGSTYYADSVKGRFTISRDNAKNTVNLQMNSLKPEDTAVYYCARVVSRNTHPYYHWGQVTQVTVSS", "polyreactivity (PSR sort gate)": "low polyreactivity"},
      {"sequence": "QLQLVESGGGLVQAGGSLRLSCAASGRIFKLNAMGWSRQAPGKERELVAAINSGTRTYYADSVKGRFTISRDNAKNTVYLQMNSLKPEDTAVYYCAAEGVWWYSRYDYWGQGTQVTVSS", "polyreactivity (PSR sort gate)": "high polyreactivity"},
      {"sequence": "QLQLVESGGGLVQAGGSLRLSCAASGRIFTYNALGWYRQAPGKERELVARIRRSGGTYYADSVKGRFTISRDNAKNTVYLQMNSLKPEDTAVYYCAVDLYIYYREYDYWGQGTQVTVSS", "polyreactivity (PSR sort gate)": "high polyreactivity"},
      {"sequence": "QLQLVESGGGLVQAGGSLRLSCAASGRIFVANTMGWYRQAPGKERELVAAISRGSTYYADSVKGRFTISRDNAKNTVYLQMKSLKPEDTAVYYCAVKLAYGYYYWGLGTQVTVSS", "polyreactivity (PSR sort gate)": "high polyreactivity"},
      {"sequence": "QLQLVESGGGLVQAGGSLRLSCAASGRIFVYYAMGWYRQAPGKERELVASISYSGASTYYADSVKGRFTISRDNAKNTVYFQMNSLKPEDTAVYYCNTDGDDFFHVIYDYWGQGTQVTVSS", "polyreactivity (PSR sort gate)": "low polyreactivity"},
      {"sequence": "QLQLVESGGGLVQAGGSLRLSCAASGRNFVHNAMGWYRPAPGKEREFVAAISLRGGSTYYADSVKGRFTTSRDNAKNSVYLQMNSLKPEDTAVYYCAAVPAHFYGYDYWGQGTQVTVSS", "polyreactivity (PSR sort gate)": "low polyreactivity"},
      {"sequence": "QLQLVESGGGLVQAGGSLRLSCAASGRTFFRYVMGWYRQAPGKERELVAAISTRGGSTYYADSVKGRFTISRDNAKNTVYLQMNSLKPEDTAVYYCAARFKVRDYSYNYWGQGTQVTVSS", "polyreactivity (PSR sort gate)": "high polyreactivity"},
      {"sequence": "QLQLVESGGGLVQAGGSLRLSCAASGRTFQPYAMGWYRQAPGKERELVAAITSIGGSTFYADSVKGRFTISRDNAKNTVYLQMNSLKPEDTAVYYCAADPYTLYWYYWYGTSGFDYWGQGTQVTVSS", "polyreactivity (PSR sort gate)": "low polyreactivity"},
      {"sequence": "QLQLVESGGGLVQAGGSLRLSCAASGRTFVRYAMGWYRQAPGKERELVAGISRSTGGTYYADSVKGRFTISRDNAKNTVYLQMNSLKPEDTAVYYCAAVYHKNGSGDYSWGQGTQVTVSS", "polyreactivity (PSR sort gate)": "high polyreactivity"},
      {"sequence": "QLQLVESGGGLVQAGGSLRLSCAASGRTFWYYAMGWYRQAPGKESELVAGISRGGSTNYADSVKGRFTISRDNAKNTVYLQMKSLKPADTAVYYCIVGRWYSQGTTGVFKGGYWGQGTQVTVSS", "polyreactivity (PSR sort gate)": "low polyreactivity"},
      {"sequence": "QLQLVESGGGLVQAGGSLRLSCAASGSIFQYNAMGLYRQAPGKRELVAALNRSGGSTYYGDSVKGRFTISRDNAKNTVDLQMNSLKPEDTAVYYCAAGVFYFLKYTVSFINYYWRQGTQVTVSS", "polyreactivity (PSR sort gate)": "high polyreactivity"},
      {"sequence": "QLQLVESGGGLVQAGGSLRLSCAASGSIFRVYAMGWYRQARGKERELVAAISSSGVRTSYADSVKGRFTISRDNAKNTVYLQMNSLKPEDTAVYYCADRYPYGYYHWGQGTQVTVSS", "polyreactivity (PSR sort gate)": "high polyreactivity"},
      {"sequence": "QLQLVESGGGLVQAGGSLRLSCAASGSIFSFYAMGGYRQAPGKERELVATITYGSGSTHYADSVKGRFTISRDNAKNTVYLQLNSLKPEDSAVYYCAGETVRYEWGDSPAALFDYWGQGTQVTVSS", "polyreactivity (PSR sort gate)": "low polyreactivity"}
    ]}
  ]
}
